Test results from patent publication WO2019109974A1 (dated 2019).

Assays:
[1] = target: T1, PD-L1 on U2OS cells stably expressing PD-L1 (UniProt Q9NZQ7 19-290, limits assumed); test: flow cytometry on PD-L1-U2OS cells, competitor biotin PD-1 protein, MFI
T1 construct: whole, on cells; also called PD-L1-U2OS; U2OS PD-L1细胞

[2] = target: PD-L1抗原 (PD-L1 antigen coated in detection method 1.2) (human, UniProt Q9NZQ7 19-238, limits assumed); test: competition ELISA: PD-L1 antigen coated, competitor biotin PD-1-mFc
[3] = target: T2, 人PD-L1抗原 (hPD-L1-his, Sino biological 10084-H08H-200) (human, UniProt Q9NZQ7 19-239); test: SPR (Biacore T200), antibody captured by anti-human antibody on CM5, PD-L1-his as analyte, 1:1 Langmuir fit
T2 construct: Bought analyte of the Biacore assay; also called human PD-L1 antigen

hPD-L1(ECD)-mFc = target: T3, hPD-L1(ECD)-mFc (human); test: ELISA, hPD-L1-mFc coated
T3 construct: Human PD-L1 extracellular domain fused to a mouse antibody heavy chain Fc tag; also called hPD-L1-mFc; PD-L1-mFc
T3 sequence (chain, as listed by the source limits assumed): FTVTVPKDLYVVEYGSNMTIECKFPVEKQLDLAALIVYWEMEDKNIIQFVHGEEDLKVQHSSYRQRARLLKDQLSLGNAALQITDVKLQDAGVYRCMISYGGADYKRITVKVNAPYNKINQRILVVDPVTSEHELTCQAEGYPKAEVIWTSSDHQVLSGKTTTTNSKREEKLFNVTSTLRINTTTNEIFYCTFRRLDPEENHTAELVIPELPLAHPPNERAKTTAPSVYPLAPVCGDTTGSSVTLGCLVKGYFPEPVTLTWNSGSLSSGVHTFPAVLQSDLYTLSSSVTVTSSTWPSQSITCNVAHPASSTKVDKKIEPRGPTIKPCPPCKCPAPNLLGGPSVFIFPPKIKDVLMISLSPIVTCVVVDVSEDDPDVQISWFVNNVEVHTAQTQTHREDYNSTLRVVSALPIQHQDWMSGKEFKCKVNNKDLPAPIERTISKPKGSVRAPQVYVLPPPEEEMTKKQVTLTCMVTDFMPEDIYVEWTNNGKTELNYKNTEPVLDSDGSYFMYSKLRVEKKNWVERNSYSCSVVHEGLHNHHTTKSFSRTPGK

Chain of PD-L1抗原 (PD-L1 antigen coated in detection method 1.2) (Q9NZQ7 19-238 limits assumed): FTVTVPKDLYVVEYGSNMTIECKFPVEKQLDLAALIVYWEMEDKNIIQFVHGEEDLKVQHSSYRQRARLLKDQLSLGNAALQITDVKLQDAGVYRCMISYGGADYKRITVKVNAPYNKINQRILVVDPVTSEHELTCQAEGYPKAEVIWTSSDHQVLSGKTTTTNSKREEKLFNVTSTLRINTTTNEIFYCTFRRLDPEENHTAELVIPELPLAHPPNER
T1 sequence (Q9NZQ7 19-290 limits assumed): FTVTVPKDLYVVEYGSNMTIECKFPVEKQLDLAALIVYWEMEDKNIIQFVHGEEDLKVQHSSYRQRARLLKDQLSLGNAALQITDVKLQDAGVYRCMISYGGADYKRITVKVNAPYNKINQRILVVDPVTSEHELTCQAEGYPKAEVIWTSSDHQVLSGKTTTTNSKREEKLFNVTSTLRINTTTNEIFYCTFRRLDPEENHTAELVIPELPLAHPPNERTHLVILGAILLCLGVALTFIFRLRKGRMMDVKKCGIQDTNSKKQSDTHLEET
T2 sequence (Q9NZQ7 19-239 limits assumed): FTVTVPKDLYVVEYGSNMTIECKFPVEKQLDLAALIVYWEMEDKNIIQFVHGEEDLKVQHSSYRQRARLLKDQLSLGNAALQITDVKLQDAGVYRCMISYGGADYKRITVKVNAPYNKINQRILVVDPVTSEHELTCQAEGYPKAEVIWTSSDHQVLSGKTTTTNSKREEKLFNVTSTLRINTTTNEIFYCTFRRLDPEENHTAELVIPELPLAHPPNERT

| Binder | IC50 [1] | IC50 [2] | Kd [3] | EC50 (hPD-L1(ECD)-mFc) |
| --- | --- | --- | --- | --- |
| 嵌合抗体Chi2-2 chimeric antibody Chi2-2 (antibody, human IgG1, kappa, V domains shown, Mouse variable regions joined to human IgG1 and human kappa constant regions) VH: QVQLQQPGAELVRPGASVNLSCKTSGYSFTSYWMNWVKQRPGQGLEWIGMIHPSDSETWLNQKFKDKATLTVDKSSSTVHMQLSSPTSEDSAVFYCVRSMVWTRHVMDYWGQGTSVTVSS VL: not shown | 2.17 µg/mL | 1.44 µg/mL | – | – |
| hu-Chi1-3.4 (antibody, human IgG1, kappa, V domains shown, also called Chi1_VH.1D / Chi1_VL.1C) VH: QVQLQESGPGLVKPSQTLSLTCTVSGYSITSDYWNWIRQHPGKGLEYIGYISYTGSTYYNPSLKSRVTISRDTSKNQFSLKLSSVTAADTAVYYCARGEAWDRRTLDYWGQGTLVTVSS VL: DFQMTQSPSSLSASVGDRVTITCRASQDITNYLNWYQQKPDKAVKLLIYYTSRLHSGVPSRFSGSGSGTDFTLTISSLQPEDFATYYCQQVYTLPWTFGQGTKLEIKR | – | – | 0.799 nM | – |
| 嵌合抗体2-1(Chi2-1) chimeric antibody 2-1 (antibody, human IgG1, kappa, V domains shown, Mouse variable regions joined to human IgG1 and human kappa constant regions) VH: QVQLQQPGAELVRPGASVKLSCKASGYSFTFYWMNWVKQRPGQGLEWIGMIHPSDSETRLNQKFKDKATLTVDKSSSTAYMQLSSPTSEDTAVYYCVRNMVWSRQVMDYWGQGTSVTVSS VL: DVVMTQTPLTLSVTIGQPASISCKSSQSLLDSDGNTYLNWLLQRPGESPKLLLYLVSKLDSGVPDRFTGSGSGTDFTLKIGRVEAADLGVYYCLQSTHFPYTFGGGTKLEIKR | 0.248 µg/mL | 0.462 µg/mL | – | 0.145 µg/mL |
| 嵌合抗体1(Chi1) chimeric antibody 1 (antibody, human IgG1, kappa, V domains shown, expressed in ExpiCHO; also called 母本嵌合抗体) VH: EVQLQESGPGLAKPSQTLSLTCSVTGYSITSDYWNWIRRFPGNKLEYMGYISYTGSTYYNPSLKSRISITRDTSKNQYYLQLKSVTTEDTATYYCARGEAWDRRTLDCWGQGTSVTVSS VL: DFQMTQTTSSLSASLGDRVTISCRASQDITNYLNWYQQKPDGTVKLLIYYTSRLHSGVPSRFSGSGSGSDYALTISNLEQEDIATYFCQQVYTLPWTFGRGTKLEIKR | 0.195 µg/mL | 0.514 µg/mL | 0.674 nM | 0.107 µg/mL |
